Numbering of substitutions follows the chain as printed. Names and notes keep the numbering of the source.
T1: orthogonal hCD122 receptor (hoRb), hCD122 with H133D and Y134F (human, UniProt P14784 27-550)
T1 sequence: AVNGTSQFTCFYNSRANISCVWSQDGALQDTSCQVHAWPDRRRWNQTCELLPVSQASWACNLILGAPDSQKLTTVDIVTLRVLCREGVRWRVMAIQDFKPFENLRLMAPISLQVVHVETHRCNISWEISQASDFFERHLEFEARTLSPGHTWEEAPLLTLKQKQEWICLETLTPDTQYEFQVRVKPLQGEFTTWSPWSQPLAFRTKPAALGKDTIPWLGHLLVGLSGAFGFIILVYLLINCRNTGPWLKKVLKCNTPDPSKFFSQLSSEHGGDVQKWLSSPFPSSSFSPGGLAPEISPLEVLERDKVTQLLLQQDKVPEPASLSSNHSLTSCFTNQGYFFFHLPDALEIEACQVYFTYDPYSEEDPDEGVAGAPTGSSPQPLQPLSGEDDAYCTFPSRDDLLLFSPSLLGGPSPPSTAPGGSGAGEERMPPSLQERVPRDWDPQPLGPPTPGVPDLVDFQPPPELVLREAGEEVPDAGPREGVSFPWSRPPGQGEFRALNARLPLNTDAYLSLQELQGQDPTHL

B1: SQVLKQ (ligand)
chain: APTSSSTKKTQLQLSQLLVLLKQILNGINNYKNPKLTRMLTFKFYMPKKATELKHLQCLEEELKPLEEVLNLAQSKNFHLRPRDLISNINVIVLELKGSETTFMCEYADETATIVEFLNRWITFCQSIISTLT
B2: R38G, SQVLKA (ligand)
chain: B1 chain with Q23A, R38G
B3: R38W, SQVLKA (ligand)
chain: B1 chain with Q23A, R38W
B4: SQVLKT (ligand)
chain: B1 chain with Q23T
B5: SQVLKL (ligand)
chain: B1 chain with Q23L
B6: G27K, SQVLKA (ligand)
chain: B1 chain with Q23A, G27K
B7: SQVLKS (ligand)
chain: B1 chain with Q23S
B8: G27S, SQVLKA (ligand)
chain: B1 chain with Q23A, G27S
B9: SQVLKV (ligand)
chain: B1 chain with Q23V
B10: ΔQ13, SQVLKA (ligand)
chain: APTSSSTKKTQLLSQLLVLLKAILNGINNYKNPKLTRMLTFKFYMPKKATELKHLQCLEEELKPLEEVLNLAQSKNFHLRPRDLISNINVIVLELKGSETTFMCEYADETATIVEFLNRWITFCQSIISTLT
B11: ΔG27, SQVLKA (ligand)
chain: APTSSSTKKTQLQLSQLLVLLKAILNINNYKNPKLTRMLTFKFYMPKKATELKHLQCLEEELKPLEEVLNLAQSKNFHLRPRDLISNINVIVLELKGSETTFMCEYADETATIVEFLNRWITFCQSIISTLT

Each binder was assayed against T1, orthogonal hCD122 receptor (hoRb), … (assay: cell-based or functional assay).

NKL Ortho Proliferation Signal 1:2	NKL Ortho Proliferation Signal 1:10	NKL Ortho Proliferation Signal 1:50	Relative Proliferation Fold Change NKL 1:2	Relative Proliferation Fold Change NKL 1:10	Relative Proliferation Fold Change NKL 1:50	Binder
74300	82000	49600	4.43 fold	4.61 fold	3.05 fold	B1
20100	18100	9740	1.78 fold	1.19 fold	0.67 fold	B2
36700	23800	11500	2.74 fold	1.51 fold	0.77 fold	B3
61400	63400	33400	4.68 fold	4.52 fold	2.5 fold	B4
59700	67100	32700	4.69 fold	4.38 fold	2.26 fold	B5
36300	30600	15200	2.93 fold	1.94 fold	1.03 fold	B6
56200	59400	29000	4.79 fold	3.99 fold	2.11 fold	B7
48900	41000	20700	4.21 fold	2.94 fold	1.53 fold	B8
63400	66100	29900	4.61 fold	4.15 fold	2 fold	B9
26700	20700	11800	2.06 fold	1.39 fold	0.79 fold	B10
46600	31400	14600	3.29 fold	2.05 fold	1.04 fold	B11

Biological target: T1, orthogonal hCD122 receptor (hoRb), …
Test: cell-based or functional assay
Remark: another data set of the same source

3F8 Ortho Proliferation Signal 1:2	3F8 Ortho Proliferation Signal 1:10	3F8 Ortho Proliferation Signal 1:50	Relative Proliferation Fold Change 3F8 1:2	Relative Proliferation Fold Change 3F8 1:10	Relative Proliferation Fold Change 3F8 1:50	Binder
45700 cts/min	64000 cts/min	33100 cts/min	31.1 fold	20 fold	29.5 fold	B1
27200 cts/min	32100 cts/min	14200 cts/min	47.5 fold	21.6 fold	8.42 fold	B2
40400 cts/min	41100 cts/min	24200 cts/min	94.4 fold	57.3 fold	21.4 fold	B3
46400 cts/min	54400 cts/min	28500 cts/min	22.9 fold	54.9 fold	37.8 fold	B4
40200 cts/min	37000 cts/min	8930 cts/min	43 fold	15.3 fold	5.43 fold	B5
37800 cts/min	23700 cts/min	10300 cts/min	170 fold	47.9 fold	7.82 fold	B6
43800 cts/min	55500 cts/min	26600 cts/min	90.8 fold	58.3 fold	24.2 fold	B7
40200 cts/min	34700 cts/min	15200 cts/min	94 fold	33 fold	24.6 fold	B8
45300 cts/min	53000 cts/min	21000 cts/min	36.1 fold	29.1 fold	20.8 fold	B9
37600 cts/min	26100 cts/min	12400 cts/min	102 fold	23.7 fold	7.63 fold	B10
28400 cts/min	21900 cts/min	6730 cts/min	105 fold	30.4 fold	10.2 fold	B11

Reference: patent US20210196796A1 (SYNTHEKINE, published 2021)
